According to patent publication US9266930:

Columns and labels:
[1] = biological target: HLA-DR5w11 (DRB1*1101) (human)
[2] = biological target: HLA-DR2w2β2 (DRB5*0101) (human)
HLA-A*1101 (human) = details: for binding affinity ratio (relative to standard peptide): scale: ratio
[3] = biological target: HLA-A*1101 (purified HLA class I molecule) (human); assay: competition with a 125I-labelled probe peptide for purified HLA-A*1101
[4] = biological target: T1, HLA-DR7 (DRB1*0701) (human)
T1 chain 1: not shown
T1 chain 2: not shown

[5] = biological target: T2, HLA-DR8w2 (DRB1*0802) (human)
T2 chain 1: not shown
T2 chain 2: not shown

[6] = biological target: T3, HLA-DR5w12 (DRB1*1201) (human)
T3 chain 1: not shown
T3 chain 2: not shown

[7] = biological target: HLA-DR1 (DRB1*0101) (human)
[8] = biological target: HLA-DR4w15 (DRB1*0405) (human)

## YLLMDCSGSI (modifications not checked) [SSP2 50 …]
HLA-A*0201 (Human)
  binding affinity ratio (IC50 of standard peptide / IC50 of test peptide): 0.17

## AVPLAMKLIQQLNLN (modifications not checked)
[1]
  binding affinity ratio (IC50 of standard peptide / IC50 of test peptide): 0.0002
[2]
  binding affinity ratio (IC50 of standard peptide / IC50 of test peptide): -0.0006

## QCEEERCPPK (modifications not checked) [… (Pf SSP2 280)]
HLA-A*1101 (human)
  binding affinity ratio (IC50 of standard peptide / IC50 of test peptide): 0.0002

## NSEDRETRPH (modifications not checked) [… (Pf SSP2 448)]
HLA-A*1101 (human)
  binding affinity ratio (IC50 of standard peptide / IC50 of test peptide): 0.0002

## YADSAWENVK (modifications not checked) [… (Pf SSP2 215, 10-mer)]
[3]
  binding affinity ratio (IC50 of standard peptide / IC50 of test peptide): 0.0002

## HLGNVKYLV (modifications not checked) [… (Pf SSP2 3, 9-mer)]
HLA-A*0201 (Human)
  binding affinity ratio (IC50 of standard peptide / IC50 of test peptide): 0.0017

## LIFFDLFLV (modifications not checked) [… (Pf SSP2 15, 9-mer A02 supermotif peptide)]
HLA-A*0201 (Human)
  binding affinity ratio (IC50 of standard peptide / IC50 of test peptide): 0.089

## SAWENVKNV (modifications not checked) [SSP2 218 …]
HLA-A*0201 (Human)
  binding affinity ratio (IC50 of standard peptide / IC50 of test peptide): 0.0019

## KGTGSGVSSK (modifications not checked) [Pf EXP peptide … (position 27)]
HLA-A*1101 (human)
  binding affinity ratio (relative to standard peptide): 0.0009

## PSPNPEEGK (modifications not checked) [… (Pf SSP2 328)]
HLA-A*1101 (human)
  binding affinity ratio (IC50 of standard peptide / IC50 of test peptide): 0.0002

## VVPGAATPY (modifications not checked) [… (Pf SSP2 521, 9-mer)]
[3]
  binding affinity ratio (IC50 of standard peptide / IC50 of test peptide): 0.0002

## SIQDSLKESR (modifications not checked) [… (Pf SSP2 167, 10-mer)]
[3]
  binding affinity ratio (IC50 of standard peptide / IC50 of test peptide): 0.0009

## VIVFLIFFDL (modifications not checked) [SSP2 11 …]
HLA-A*0201 (Human)
  binding affinity ratio (IC50 of standard peptide / IC50 of test peptide): 0.0038

## GLALLACAGL (modifications not checked) [… (Pf SSP2 507, 10-mer)]
HLA-A*0201 (Human)
  binding affinity ratio (IC50 of standard peptide / IC50 of test peptide): 0.017

## VLLGGVGLV (modifications not checked) [… (P. falciparum EXP-1, position 91, 9 amino acids)]
HLA-A*0201 (Human)
  binding affinity ratio (IC50 of standard peptide / IC50 of test peptide): 0.029

## HDLISDMIKK (modifications not checked)
HLA-A*1101 (human)
  binding affinity ratio (relative to standard peptide): 0.0002

## IFNKESLAEK (modifications not checked) [Pf EXP peptide … (position 15)]
HLA-A*1101 (human)
  binding affinity ratio (relative to standard peptide): 0.0003

## CVEVEKTASCGVWDE (modifications not checked) [… (Pf SSP2 235)]
[4]
  binding affinity ratio (IC50 of standard peptide / IC50 of test peptide): 0.0095
[5]
  binding affinity ratio (IC50 of standard peptide / IC50 of test peptide): 0.0005
[6]
  binding affinity ratio (IC50 of standard peptide / IC50 of test peptide): 0.0001

## GVSSKKKNKK (modifications not checked)
HLA-A*1101 (human)
  binding affinity ratio (relative to standard peptide): 0.0002

## RSRKREILH (modifications not checked) [… (Pf SSP2 262, 9-mer)]
[3]
  binding affinity ratio (IC50 of standard peptide / IC50 of test peptide): 0.0002

## LIFFDLFLVNGRDVQ (modifications not checked) [… (Pf SSP2 15)]
[4]
  binding affinity ratio (IC50 of standard peptide / IC50 of test peptide): 0.047

## VVILTDGIPDSIQDS (modifications not checked)
[1]
  binding affinity ratio (IC50 of standard peptide / IC50 of test peptide): -0.0004
[2]
  binding affinity ratio (IC50 of standard peptide / IC50 of test peptide): -0.0006
[7]
  binding affinity ratio (IC50 of standard peptide / IC50 of test peptide): 0.0001

## HDLISDMIK (modifications not checked)
HLA-A*1101 (human)
  binding affinity ratio (relative to standard peptide): 0.0002

## VIGPFMKAV (modifications not checked) [SSP2 226 …]
HLA-A*0201 (Human)
  binding affinity ratio (IC50 of standard peptide / IC50 of test peptide): 0.0004

## SVFFLALFFI (modifications not checked) [… (P. falciparum EXP-1, position 5, 10 amino acids)]
HLA-A*0201 (Human)
  binding affinity ratio (IC50 of standard peptide / IC50 of test peptide): 0.0017

## MKILSVFFLALFFII (modifications not checked)
[1]
  binding affinity ratio (IC50 of standard peptide / IC50 of test peptide): -0.001
[2]
  binding affinity ratio (IC50 of standard peptide / IC50 of test peptide): -0.0021

## LLMDCSGSI (modifications not checked) [… (Pf SSP2 51, 9-mer A02 supermotif peptide)]
HLA-A*0201 (Human)
  binding affinity ratio (IC50 of standard peptide / IC50 of test peptide): 0.046

## QSQDNNGNRH (modifications not checked) [… (Pf SSP2 436, 10-mer)]
[3]
  binding affinity ratio (IC50 of standard peptide / IC50 of test peptide): 0.0002

## LLGGVGLVL (modifications not checked) [… (EXP position 92, 9 amino acids)]
HLA-A*0201 (Human)
  binding affinity ratio (IC50 of standard peptide / IC50 of test peptide): 0.0038

## WSPCSVTCGK (modifications not checked) [… (Pf SSP2 250, 10-mer)]
[3]
  binding affinity ratio (IC50 of standard peptide / IC50 of test peptide): 0.0002

## QVRKHLNDR (modifications not checked) [… (Pf SSP2 139, 9-mer)]
[3]
  binding affinity ratio (IC50 of standard peptide / IC50 of test peptide): 0.0002

## IVFLIFFDL (modifications not checked) [… (Pf SSP2 12, 9-mer A02 supermotif peptide)]
HLA-A*0201 (Human)
  binding affinity ratio (IC50 of standard peptide / IC50 of test peptide): 0.0024

## GVSSKKKNK (modifications not checked)
HLA-A*1101 (human)
  binding affinity ratio (relative to standard peptide): 0.0002

## PDSIQDSLK (modifications not checked) [… (Pf SSP2 165)]
HLA-A*1101 (human)
  binding affinity ratio (IC50 of standard peptide / IC50 of test peptide): 0.0002

## SIRRHNWVNH (modifications not checked) [… (Pf SSP2 58, 10-mer)]
[3]
  binding affinity ratio (IC50 of standard peptide / IC50 of test peptide): 0.0002

## SLLSTNLPY (modifications not checked) [… (Pf SSP2 120, 9-mer)]
[3]
  binding affinity ratio (IC50 of standard peptide / IC50 of test peptide): 0.0046

## QSQDNNGNR (modifications not checked) [… (Pf SSP2 436)]
HLA-A*1101 (human)
  binding affinity ratio (IC50 of standard peptide / IC50 of test peptide): 0.0002

## VGCHPSDGK (modifications not checked) [… (Pf SSP2 203, 9-mer)]
[3]
  binding affinity ratio (IC50 of standard peptide / IC50 of test peptide): 0.0003

## QGINVAFNR (modifications not checked) [… (Pf SSP2 192)]
HLA-A*1101 (human)
  binding affinity ratio (IC50 of standard peptide / IC50 of test peptide): 0.078

## AGGIAGGLALLACAG (modifications not checked)
[1]
  binding affinity ratio (IC50 of standard peptide / IC50 of test peptide): -0.0002

## QDSLKESRK (modifications not checked) [… (Pf SSP2 169)]
HLA-A*1101 (human)
  binding affinity ratio (IC50 of standard peptide / IC50 of test peptide): 0.0002

## VKYLVIVFLIFFDLF (modifications not checked) [… (Pf SSP2 7)]
[4]
  binding affinity ratio (IC50 of standard peptide / IC50 of test peptide): 0.001

## KYLVIVFLIFFDLFL (modifications not checked)
[1]
  binding affinity ratio (IC50 of standard peptide / IC50 of test peptide): -0.0009
[8]
  binding affinity ratio (IC50 of standard peptide / IC50 of test peptide): -0.003
[2]
  binding affinity ratio (IC50 of standard peptide / IC50 of test peptide): -0.002

## GIAGGLALL (modifications not checked) [… (Pf SSP2 503, 9-mer)]
HLA-A*0201 (Human)
  binding affinity ratio (IC50 of standard peptide / IC50 of test peptide): 0.0022
